This note sets out measurements from article PMC4933465 (The Journal of Biological Chemistry, 2016).

First the molecules themselves.
B1: CCL7 (ligand)
chain: not shown
notes: chemokine CCL7; source: E. coli, purified
B3: CCL19 (ligand, UniProt Q99731 22-98, looked up)
chain: GTNDAEDCCLSVTQKPIPGYIVRNFHYLLIKDGCRVPAVVFTTLRGRQLCAPPDQPWVERIIQRLQRTSAKMKRRSS
notes: chemokine CCL19; source: E. coli, purified
B4: CXCL11 (ligand, UniProt O14625 22-94, looked up)
chain: FPMFKRGRCLCIGPGVKAVKVADIEKASIMYPSNNCDKIEVIITLKENKGQRCLNPKSKQARLIIKKVERKNF
notes: chemokine CXCL11; CXCL11 is not in the methods' list of chemokines made in E. coli

Holding throughout (details): both partners purified
For assay [1], the target named is T1, Link_TSG6 (recombinant Link module from human TSG-6) (human, UniProt P98066 36-133).
T1 construct: Link module of human TSG-6 (TNF-stimulated gene/protein 6); residues numbered as in the pre-protein; also called TSG-6 Link module
As to the kind of experiment: SPR; Link_TSG6 amine-coupled to a C1 chip (800–1000 RU), chemokine as analyte; BIAcore 3000; 10 mM HEPES, 150 mM NaCl, 0.05% Tween 20, pH 7.4; 40 μl/min; 1:1 Langmuir model; apparent affinities.

Assay [2] has as its target B1. As to the kind of experiment: ELISA; solid phase competition: chemokine (250 nM) coated on MaxiSorp plates, biotinylated heparin (25 ng/well) with Link_TSG6_T (0–1000 nM); 10 mM NaOAc, 150 mM NaCl, 2% Tween 20, pH 6.0, room temperature, 4 h; bound heparin detected. (In general: In an ELISA, binding on a coated surface is turned into a signal by an enzyme label.)
Assay [3] has as its target B3. The description is as above.
The target of assay [4] is B4. The assay is described as above.
Assay [5] has as its target T2, CCL2 (UniProt P13500 24-99).
T2 construct: chemokine CCL2; source: E. coli, purified
The description is as above.

Assay [6] concerns the target T1, Link_TSG6 (recombinant Link module from …). As to the kind of experiment: plate binding assay on a collagen-coated surface, labeled streptavidin detection; wells coated with type I collagen (100 μg/ml); biotinylated chemokine (10, 50 or 200 nM) alone or pre-incubated 30 min at 37 °C with different molar ratios of Link_TSG6 in cPBS, then 1 h on the surface; streptavidin IRDye 800CW.

Assay [7] has the same target. The assay is described as follows: SPR; Link_TSG6 amine-coupled to a C1 chip (800–1000 RU), chemokine as analyte; BIAcore 3000; 10 mM HEPES, 150 mM NaCl, 0.05% Tween 20, pH 7.4; 40 μl/min; 1:1 Langmuir model; apparent affinities. The source holds these as a separate data set.

Sequence of CCL7 (P80098 24-99): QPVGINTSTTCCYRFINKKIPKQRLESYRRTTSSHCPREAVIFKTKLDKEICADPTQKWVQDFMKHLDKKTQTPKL
T2 sequence (P13500 24-99): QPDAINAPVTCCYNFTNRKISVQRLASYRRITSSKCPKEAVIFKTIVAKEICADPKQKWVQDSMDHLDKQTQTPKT

Take B1: in assay [1], the Kd was 18.4 nM, the koff is 0.0016 s⁻¹ and the kon amounted to 87000 M⁻¹ s⁻¹.

B2: Link_TSG6_T (K55A/K69A/K76A) (domain or fragment, human)
chain: GVYHREARSGKYKLTYAEAAAVCEFEGGHLATYAQLEAARAIGFHVCAAGWMAKGRVGYPIVKPGPNCGFGKTGIIDYGIRLNRSERWDAYCYNPHAK
notes: Link module of human TSG-6 with three lysines changed to alanine; residues numbered as in the pre-protein
With B2, the IC50 was 159 nM in assay [2], 55 nM in assay [3], 168 nM in assay [4] and 84 nM in assay [5].
In the case of B3, in assay [1], the Kd turned out to be 17.5 nM, the koff came to 0.0028 s⁻¹ and the kon amounted to 160000 M⁻¹ s⁻¹.
The like results for B4 were, in that order, 5.2 nM, 0.0013 s⁻¹ and 250000 M⁻¹ s⁻¹.

B5: CCL21 (ligand, UniProt O00585 24-134, looked up)
chain: SDGGAQDCCLKYSQRKIPAKVVRSYRKQEPSLGCSIPAILFLPRKRSQAELCADPKELWVQQLMQHLDKTPSPQKPAQGCRKDRGASKTGKKGKGSKGCKRTERSQTPKGP
notes: chemokine CCL21; source: E. coli, purified
As to B5, in assay [1], the Kd was 4.8 nM, the koff amounted to 0.0034 s⁻¹ and the kon worked out at 710000 M⁻¹ s⁻¹.

B6: Biotinylated CCL21 (ligand, UniProt O00585 24-134, looked up)
chain: SDGGAQDCCLKYSQRKIPAKVVRSYRKQEPSLGCSIPAILFLPRKRSQAELCADPKELWVQQLMQHLDKTPSPQKPAQGCRKDRGASKTGKKGKGSKGCKRTERSQTPKGP
modifications: biotin
notes: chemokine CCL21, biotinylated; also called biotinylated chemokine CCL21; source: E. coli, purified
As to B6, in assay [6], the binding result was “binds”.

B7: CCL27 (ligand, UniProt Q9Y4X3 25-112, looked up)
chain: FLLPPSTACCTQLYRKPLSDKLLRKVIQVELQEADGDCHLQAFVLHLAQRSICIHPQNPSLSQWFEHQERKLHGTLPKLNFGMLRKMG
notes: chemokine CCL27; source: E. coli, purified
For B7, in assay [1], the Kd turned out to be 85.2 nM, the koff came out at 0.0023 s⁻¹ and the kon came out at 27000 M⁻¹ s⁻¹.

B8: CCL27 K25A (ligand, UniProt Q9Y4X3 25-112, looked up)
chain: FLLPPSTACCTQLYRKPLSDKLLRAVIQVELQEADGDCHLQAFVLHLAQRSICIHPQNPSLSQWFEHQERKLHGTLPKLNFGMLRKMG
notes: chemokine CCL27 with K25A; also called CCL27 K25A mutant; source: E. coli, purified
Regarding B8, in assay [1], the Kd worked out at 753 nM, the koff stood at 0.0061 s⁻¹ and the kon was determined as 8100 M⁻¹ s⁻¹.

B9: CCL5 (ligand, UniProt P13501 24-91, looked up)
chain: SPYSSDTTPCCFAYIARPLPRAHIKEYFYTSGKCSNPAVVFVTRKNRQVCANPEKKWVREYINSLEMS
notes: chemokine CCL5; source: E. coli, purified
As for B9, in assay [7], the binding result is listed as “binds”.

Broadly, the koff is the first-order rate constant of dissociation. In general, kon refers to a measure of how fast the partners come together. As usually defined, the IC50 is the point on the concentration scale where inhibition reaches its midpoint.
